Data taken from patent US20260250361A1 (HUAHUI HEALTH, published 2026).
Changes are numbered by the printed parent chain.

Assays:
hFcγRIIIa (F158) [1] = target: T1, hFcγRIIIa (F158) (human, UniProt P08637 17-208); assay: Biacore; ratio against A14 WT
T1 construct: F at position 158; also called hFcγR3a F158
Method: (§1) Different concentrations of recombinant hFcγR were used as the mobile phase over the flow path to allow binding and dissociation with the antibodies on the chip at pH 7.0. The affinity was then calculated by fitting the data using a 1:1 Langmuir binding model.

hFcγRIIIa (V158) [2] = target: T2, hFcγRIIIa (V158) (human, UniProt P08637 17-208); assay: Biacore; ratio against A14 WT
T2 construct: V at position 158; also called hFcγR3a V158
Method: as §1

hFcγRIIa (H131) [3] = target: T3, hFcγRIIa (H131) (human, UniProt P12318 34-217); assay: Biacore; ratio against A14 WT
T3 construct: also called hFcγR2a H131
T3 sequence: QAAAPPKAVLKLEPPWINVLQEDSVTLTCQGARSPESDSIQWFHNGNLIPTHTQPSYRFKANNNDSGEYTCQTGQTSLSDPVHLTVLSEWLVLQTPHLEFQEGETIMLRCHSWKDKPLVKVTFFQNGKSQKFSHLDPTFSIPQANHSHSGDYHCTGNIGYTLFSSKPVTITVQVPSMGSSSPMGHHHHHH
Method: as §1

hFcγRIa [4] = target: T4, hFcγRIa (human, UniProt P12314 16-288, limits assumed); assay: Biacore; ratio against A14 WT
T4 construct: Recombinant, Ni column purified; also called hFcγR1a; human FcγRI
Method: as §1

hFcγRIIa (R131) [5] = target: T5, hFcγRIIa (R131) (human, UniProt P12318 34-217); assay: Biacore; ratio against A14 WT
T5 construct: also called hFcγR2a R131
T5 sequence: T3 sequence with H134R
Method: as §1

hFcγRIIb [6] = target: T6, hFcγRIIb (human, UniProt P31994 43-217); assay: Biacore; ratio against A14 WT
T6 construct: also called hFcγR2b
T6 sequence: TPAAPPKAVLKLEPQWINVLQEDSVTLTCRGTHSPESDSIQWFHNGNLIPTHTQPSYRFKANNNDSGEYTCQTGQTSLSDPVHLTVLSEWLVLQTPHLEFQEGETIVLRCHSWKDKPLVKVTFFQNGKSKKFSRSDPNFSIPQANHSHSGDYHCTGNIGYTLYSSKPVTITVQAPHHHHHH
Method: as §1

[7] = target: Pre-S1 domain of the L protein on recombinant HBV D genotype virus (hepatitis B virus, D genotype); assay: cell-based or functional assay
[8] = target: T7, FcγRIIa R131 on Jurkat/NFAT-luc2p/FcγRIIa R131 cells (UniProt P12318 34-317); assay: cell-based or functional assay
T7 sequence (looked up): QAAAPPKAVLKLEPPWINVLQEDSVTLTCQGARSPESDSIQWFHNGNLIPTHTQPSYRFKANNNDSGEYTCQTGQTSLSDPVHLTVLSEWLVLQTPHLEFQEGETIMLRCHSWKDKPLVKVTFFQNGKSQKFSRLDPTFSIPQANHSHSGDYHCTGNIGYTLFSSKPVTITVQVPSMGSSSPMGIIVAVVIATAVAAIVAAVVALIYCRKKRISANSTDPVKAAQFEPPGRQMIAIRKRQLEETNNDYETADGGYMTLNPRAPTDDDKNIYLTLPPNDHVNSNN

[9] = target: FcγRIIIa F158 on Jurkat/NFAT-luc2p/FcγRIIIa F158 cells (UniProt P08637 17-254, limits assumed); assay: cell-based or functional assay
human FcRn [10] = target: T8, human FcRn (human, UniProt P55899 24-297; P61769 21-119); assay: Biacore (SPR): hFcRn amine-coupled on a CM5 chip, antibody as mobile phase, pH 6.0, 1:1 Langmuir fit
T8 construct: beta-2-microglobulin is not mentioned; also called hFcRn; recombinantly expressed hFcRn
Method: (§2) The affinity was then calculated by fitting the data using a 1:1 Langmuir binding model.

human FcRn [11] = target: T8, human FcRn; assay: Biacore; hFcRn amine-coupled on CM5 chip, antibody in mobile phase, pH 6.0, 1:1 Langmuir fit
Method: as §2

hFcγRIIIa (F158) [12] = target: T1, hFcγRIIIa (F158); assay: Biacore; antibody captured on Protein G CM5 chip, hFcγR in mobile phase, pH 7.0, 1:1 Langmuir fit
Method: as §1

hFcγRIIIa (V158) [13] = target: T2, hFcγRIIIa (V158); assay: as above
Method: as §1

hFcγRIIa (H131) [14] = target: T3, hFcγRIIa (H131); assay: as above
Method: as §1

hFcγRIa [15] = target: T4, hFcγRIa; assay: as above
Method: as §1

hFcγRIIa (R131) [16] = target: T5, hFcγRIIa (R131); assay: as above
Method: as §1

hFcγRIIb [17] = target: T6, hFcγRIIb; assay: as above
Method: as §1

[18] = target: T9, antigen peptide NC36b (pre-S1); assay: ELISA on the antigen peptide NC36b (Pre-S1), panel title 'Binding to PreS1'
T9 construct: Synthesised by Beijing Zhongke Yaguang Biotechnology; also called target antigen Pre-S1

T2 sequence (P08637 other isoform, or with tags, fused parts or gaps): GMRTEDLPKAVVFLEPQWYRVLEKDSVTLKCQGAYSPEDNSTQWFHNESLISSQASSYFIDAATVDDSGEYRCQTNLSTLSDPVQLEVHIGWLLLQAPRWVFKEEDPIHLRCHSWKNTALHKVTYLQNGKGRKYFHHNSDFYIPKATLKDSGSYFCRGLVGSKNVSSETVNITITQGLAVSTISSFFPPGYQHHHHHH
T1 sequence (P08637 other isoform, or with tags, fused parts or gaps): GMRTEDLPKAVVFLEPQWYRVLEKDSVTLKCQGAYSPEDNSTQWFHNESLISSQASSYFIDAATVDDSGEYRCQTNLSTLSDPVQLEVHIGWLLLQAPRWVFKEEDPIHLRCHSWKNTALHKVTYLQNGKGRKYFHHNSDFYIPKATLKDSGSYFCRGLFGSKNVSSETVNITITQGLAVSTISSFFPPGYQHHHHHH
T4 sequence (P12314 other isoform, or with tags, fused parts or gaps limits assumed): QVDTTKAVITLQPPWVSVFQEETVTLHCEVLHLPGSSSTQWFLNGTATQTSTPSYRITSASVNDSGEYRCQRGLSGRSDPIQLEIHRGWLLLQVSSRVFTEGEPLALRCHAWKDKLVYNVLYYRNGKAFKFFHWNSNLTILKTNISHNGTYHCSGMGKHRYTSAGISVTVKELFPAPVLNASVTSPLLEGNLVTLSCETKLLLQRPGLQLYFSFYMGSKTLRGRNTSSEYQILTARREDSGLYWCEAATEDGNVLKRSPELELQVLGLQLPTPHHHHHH
T8 sequence (P55899 24-297 limits assumed, chain 1 of 2): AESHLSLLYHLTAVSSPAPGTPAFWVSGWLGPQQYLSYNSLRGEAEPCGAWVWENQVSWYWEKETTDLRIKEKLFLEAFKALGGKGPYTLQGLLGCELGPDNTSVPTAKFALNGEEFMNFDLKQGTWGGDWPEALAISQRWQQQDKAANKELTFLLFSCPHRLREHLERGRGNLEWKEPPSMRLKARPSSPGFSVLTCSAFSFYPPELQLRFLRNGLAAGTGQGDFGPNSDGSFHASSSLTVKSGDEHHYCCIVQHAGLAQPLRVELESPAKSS
T8 sequence (P61769 21-119 limits assumed, chain 2 of 2): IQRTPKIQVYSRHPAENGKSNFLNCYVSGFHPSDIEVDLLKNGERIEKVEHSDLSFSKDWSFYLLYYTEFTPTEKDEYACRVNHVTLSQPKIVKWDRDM

B1: afuco-A14 GA LS (antibody, human IgG1, lambda)
heavy: QVQLQQSGPGLVKPSQTLSLTCAISGDSVSSNSAAWNWIRQSPSRGLEWLGRTYYRSKWYNDYAVSVKSRITINPDTSKNQFSLQLNSVTPEDTAVYYCARGTRWGMDVWGQGTLVTVSSASTKGPSVFPLAPSSKSTSGGTAALGCLVKDYFPEPVTVSWNSGALTSGVHTFPAVLQSSGLYSLSSVVTVPSSSLGTQTYICNVNHKPSNTKVDKKVEPKSCDKTHTCPPCPAPELLAGPSVFLFPPKPKDTLMISRTPEVTCVVVDVSHEDPEVKFNWYVDGVEVHNAKTKPREEQYNSTYRVVSVLTVLHQDWLNGKEYKCKVSNKALPAPIEKTISKAKGQPREPQVYTLPPSRDELTKNQVSLTCLVKGFYPSDIAVEWESNGQPENNYKTTPPVLDSDGSFFLYSKLTVDKSRWQQGNVFSCSVLHEALHSHYTQKSLSLSPGK
light: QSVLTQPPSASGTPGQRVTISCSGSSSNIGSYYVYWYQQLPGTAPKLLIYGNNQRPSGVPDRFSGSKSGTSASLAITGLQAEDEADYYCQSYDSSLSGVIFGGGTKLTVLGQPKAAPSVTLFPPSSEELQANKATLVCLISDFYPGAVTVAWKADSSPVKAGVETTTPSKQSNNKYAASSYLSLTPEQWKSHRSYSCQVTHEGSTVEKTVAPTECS
modifications: Afucosylated modification (expressed in Fut8-knockout FCC# cells)
notes: IgG1
hFcγRIIIa (F158) [1]
  Fold (KD of A14 WT over KD of afuco-A14 GA LS): 11 fold
hFcγRIIIa (V158) [2]
  Fold (KD of A14 WT over KD of afuco-A14 GA LS): 7.89 fold
hFcγRIIa (H131) [3]
  Fold (KD of A14 WT over KD of afuco-A14 GA LS): 4.63 fold
hFcγRIa [4]
  Fold (KD of A14 WT over KD of afuco-A14 GA LS): 0.41 fold
hFcγRIIa (R131) [5]
  Fold (KD of A14 WT over KD of afuco-A14 GA LS): 3.83 fold
hFcγRIIb [6]
  Fold (KD of A14 WT over KD of afuco-A14 GA LS): 0.76 fold
[7]
  IC50 of inhibition of HBV infection of HepG2-hNTCP cells (HBeAg secretion): ~0.011 µg/mL
[8]
  ADCP activity, fold enhancement compared to A14 (Jurkat/NFAT-luc2p/FcγRIIa R131 reporter): ≥ 4.7 fold
[9]
  ADCC activity, fold enhancement compared to A14 (Jurkat/NFAT-luc2p/FcγRIIIa F158 reporter): 18.6 fold
Human FcRn [10]
  Kd: 6.46 nM
Human FcRn [11]
  fold change in KD against A14 WT: 3.4 fold
hFcγRIIIa (F158) [12]
  Kd: 588 nM
hFcγRIIIa (V158) [13]
  Kd: 123 nM
hFcγRIIa (H131) [14]
  Kd: 169 nM
hFcγRIa [15]
  Kd: 173 nM
hFcγRIIa (R131) [16]
  Kd: 204 nM
hFcγRIIb [17]
  Kd: 7470 nM
[18]
  EC50 (read off the curve): ~0.02 µg/mL
